Patent US20130274178A1 (PHILADELPHIA HEALTH AND EDUCATION CORPORATION D B A DREXEL …, published 2013)
Where no end group is shown, it is not given here. [ ]: non-standard residue; d: D form.

Tests used:
HIV-1YU2 gp120 [1] = molecular target: T1, HIV-1YU2 gp120 (HIV-1 strain YU-2, UniProt P35961 32-498, limits assumed); assay: SPR competition; gp120 binding to mAb 17b; Example 8, Table 9
T1 construct: domain: gp120

HIV-1YU2 gp120 [2] = molecular target: T1, HIV-1YU2 gp120; assay: SPR competition; gp120 binding to CD4
Method: (§1) All surface plasmon resonance experiments (SPR) were performed on a BIA3000 optical biosensor (Biocore, Inc., Uppsala, Sweden). […] The indicated analytes were passed over the surfaces at a flow rate of 50 μL/minute, with 2.5 minute association phase and 2.5 minute dissociation phase.

[3] = molecular target: HIV-1 gp120 on envelope-pseudotyped luciferase-reporter virus (strain not stated, Example 8) (HIV-1, strain ); assay: cell-based or functional assay
HIV-1YU2 gp120 [4] = molecular target: T1, HIV-1YU2 gp120; assay: ITC; peptide titrated into gp120, 25 °C, PBS pH 7.4
Method: The solutions contained within the calorimetric cells and injector syringes were prepared in PBS, pH 7.4 and thoroughly degassed to avoid bubble formation in the calorimetric cell. The heat evolved upon each injection of the peptide solution was obtained from the integral of the calorimetric signal. The heat associated with binding of a ligand to the protein in the cell was obtained by subtracting the heat of dilution from the heat of reaction. Heats of dilution due to mismatch between the syringe and cell solutions were negligible in all experiments.

[5] = molecular target: HIV-1BaL envelope glycoprotein on pseudotyped virus (HIV-1 strain BaL); assay: cell-based or functional assay
HIV-1YU2 gp120 [6] = molecular target: T1, HIV-1YU2 gp120; assay: SPR direct binding; YU-2 gp120 immobilized (~3500 RU), peptide as analyte
Method: Surface plasmon resonance (SPR) interaction analyses were performed on a Biacore® 3000 optical biosensor (GE). All experiments were carried out at 25° C. using standard PBS, pH 7.4, with 0.005% Surfactant P20.
Regeneration of the surface was achieved by a one 5-second pulse of 10 mM glycine, pH 1.5.

HIV-1YU2 gp120 [7] = molecular target: T1, HIV-1YU2 gp120; assay: SPR direct binding; YU-2 gp120 immobilized (~3500 RU), peptide as analyte; Example 9; SPR direct binding, peptide over immobilized gp120
HIV-1YU2 gp120 [8] = molecular target: T1, HIV-1YU2 gp120; assay: ITC; peptide titrated into gp120, 25 °C, PBS pH 7.4; ITC, 25° C. in PBS, pH 7.4
Method: Data was obtained as 25° C. in PBS, pH 7.4.
The solutions contained within the calorimetric cells and injector syringes were prepared in PBS, pH 7.4 and thoroughly degassed to avoid bubble formation in the calorimetric cell. The heat evolved upon each injection of the peptide solution was obtained from the integral of the calorimetric signal. The heat associated with binding of a ligand to the protein in the cell was obtained by subtracting the heat of dilution from the heat of reaction.

HIV-1YU2 gp120 [9] = molecular target: T1, HIV-1YU2 gp120; assay: ELISA and SPR competition; gp120 binding to sCD4
HIV-1YU2 gp120 [10] = molecular target: T1, HIV-1YU2 gp120; assay: competition ELISA: mAb 17b (0.1 µg/ml) with peptide on plate-coated YU-2 gp120; blocked ligand mAb 17b (the UM10 curve that is not diamonds)
[11] = molecular target: T2, soluble four domain CD4 (sCD4) (UniProt P01730 26-394, limits assumed); assay: SPR, sCD4 surface
T2 construct: domain: soluble four domain CD4; also called soluble CD4

HIV-1YU2 gp120 [12] = molecular target: T1, HIV-1YU2 gp120; assay: competition ELISA: sCD4 (0.1 µg/ml) with peptide on plate-coated YU-2 gp120; blocked ligand sCD4 (diamonds per the legend)
HIV-1YU2 gp120 [13] = molecular target: T1, HIV-1YU2 gp120; assay: competition ELISA: IgG b12 with UM17 on immobilized YU-2 gp120; blocked ligand b12
HIV-1YU2 gp120 [14] = molecular target: T1, HIV-1YU2 gp120; assay: SPR competition; gp120 binding to mAb 17b
Method: as §1

HIV-1YU2 gp120 [15] = molecular target: T1, HIV-1YU2 gp120; assay: SPR direct binding, YU2 gp120 (Example 8); Example 8 determination
[16] = molecular target: T2, soluble four domain CD4 (sCD4); assay: SPR, immobilized sCD4
HIV-1 92UG037-08 gp120 = molecular target: T3, HIV-1 92UG037-08 gp120 (HIV-1 strain 92UG037-08); assay: SPR direct binding; gp120 immobilized, peptide as analyte
T3 construct: domain: gp120; also called 92UG037-08 (A); 92Ugo37-08 gp120
Method: as §1
Data analysis was performed using BIAEvaluation® 4.0 software (Biacore Inc., NJ). The responses of a buffer injection and responses from the control surface to which the mAb 2B6R was immobilized, were subtracted to account for nonspecific binding. Experimental data were fitted to a simple 1:1 Langmuir binding model with a parameter included for mass transport. The average kinetic parameters (association [kₐ] and dissociation [kd] rates) generated from a minimum of four datasets were used to define equilibrium association (KA) and dissociation constants (KD).

Question: How did the IC50 (HIV-1YU2 gp120 [1]) turn out when NNI[Azp‑triazole‑ferrocene]WS-NH2 (Rink amide resin; also called NNIPWS) [UM31] was run?
Answer: The IC50 was 16 µM.

Question: What about the IC50 (HIV-1YU2 gp120 [2]) of the same binder?
Answer: The IC50 was 5 µM.

Question: And the “IC50 (µM), pseudotype virus cell infection assay” value [3]?
Answer: Its value is 10 µM.

Question: What about the “-TΔS” value (HIV-1YU2 gp120 [4]) of the same binder?
Answer: Its value is 4.1 kcal/mol.

Question: And the ΔH (HIV-1YU2 gp120 [4])?
Answer: Its ΔH is -13.8 kcal/mol.

Question: What about the “IC50 (µM), pseudotyped HIV-1BaL infection of HOS.CD4.CCR5 cells” value (“IC50 (µM) … of HOS.CD4.CCR5 cells” below) [5] of the same binder?
Answer: The value was 36 µM.

Question: How did the koff (HIV-1YU2 gp120 [6]) turn out when RNI[Azp‑triazole‑ferrocene]WS (also called RNIPWS) [UM32] was run?
Answer: The koff was 0.0031 s⁻¹.

Question: What about the kon (HIV-1YU2 gp120 [6]) of the same binder?
Answer: Its kon is 3300 M⁻¹ s⁻¹.

Question: How did the Kd (HIV-1YU2 gp120 [7]) turn out when INI[Azp‑triazole‑ferrocene]WS-NH2 (Rink amide resin; also called INIPWS) [UM35] was run?
Answer: Its Kd is over 10 µM.

Question: And the “IC50 (µM), pseudotype virus cell infection assay” value [3]?
Answer: The value was 17 µM.

Question: And the “IC50 (µM) … of HOS.CD4.CCR5 cells” value [5]?
Answer: Its value is 17 µM.

Question: With ENI[Azp‑triazole‑ferrocene]WS (also called ENIPWS) [UM33] as the binder, how does the koff (HIV-1YU2 gp120 [6]) read?
Answer: Its koff is 0.0018 s⁻¹.

Question: What about the kon (HIV-1YU2 gp120 [6]) of the same binder?
Answer: Its kon is 1100 M⁻¹ s⁻¹.

Question: For NI[Azp‑triazole‑ferrocene]WS (also called NIPWS) [UM41], which “-TΔS” value (HIV-1YU2 gp120 [8]) is on record?
Answer: The value was -1.6 kcal/mol.

Question: What about the ΔH (HIV-1YU2 gp120 [8]) of the same binder?
Answer: The ΔH was -6.1 kcal/mol.

Question: With [Azp‑triazole‑ferrocene]WSEAMM (also called PWSEAMM) [UM10] as the binder, how does the IC50 (HIV-1YU2 gp120 [9]) read?
Answer: The IC50 was over 10 µM.

Question: What about the “IC50 (read off the curve)” value (HIV-1YU2 gp120 [10]) of the same binder?
Answer: Its value is about 0.2 µM.

Question: Does [Azp‑triazole‑ferrocene]WSEAMM (also called PWSEAMM) [UM10] bind [11]?
Answer: Result: no binding

Question: What about the “IC50 (read off the curve)” value (HIV-1YU2 gp120 [12]) of the same binder?
Answer: The value was about 2 µM.

Question: What about the “IC50 (µM) … of HOS.CD4.CCR5 cells” value [5] of the same binder?
Answer: Its value is 35 µM.

Question: For INNI[Azp‑triazole‑ferrocene]W-NH2 (Rink amide resin; also called INNIPW) [UM15], which “IC50 (µM), pseudotype virus cell infection assay” value [3] is on record?
Answer: Its value is 7.2 µM.

Question: And the “-TΔS” value (HIV-1YU2 gp120 [4])?
Answer: The value was 6.6 kcal/mol.

Question: And the ΔH (HIV-1YU2 gp120 [4])?
Answer: The ΔH was -16.6 kcal/mol.

Question: And the “IC50 (µM) … of HOS.CD4.CCR5 cells” value [5]?
Answer: Its value is 6.9 µM.

Question: How did the “IC50 (read off the curve)” value (HIV-1YU2 gp120 [13]) turn out when NNI[Azp‑triazole‑ferrocene]W (also called NNIPW) [UM17] was run?
Answer: The value was about 3 µM.

Question: What about the “-TΔS” value (HIV-1YU2 gp120 [4]) of the same binder?
Answer: The value was 3.3 kcal/mol.

Question: What about the ΔH (HIV-1YU2 gp120 [4]) of the same binder?
Answer: Its ΔH is -13.2 kcal/mol.

Question: Which results are given for INNI[Azp‑triazole‑ferrocene]WS-NH2 (Rink amide resin; also called INNIPWS) [UM21]?
Answer: IC50 (HIV-1YU2 gp120 [2]): 0.086 µM; IC50 (µM), pseudotype virus cell infection assay [3]: 7.4 µM; IC50 (µM), pseudotyped HIV-1BaL infection of HOS.CD4.CCR5 cells [5]: 7.4 µM

Question: With FNNI[Azp‑triazole‑ferrocene]WS-NH2 (Rink amide resin; also called FNNIPWS) [UM28] as the binder, how does the IC50 (HIV-1YU2 gp120 [14]) read?
Answer: The IC50 was 0.174 µM.

Question: And the IC50 (HIV-1YU2 gp120 [2])?
Answer: The IC50 was 0.105 µM.

Question: And the “IC50 (µM), pseudotype virus cell infection assay” value [3]?
Answer: Its value is 11 µM.

Question: What about the koff (HIV-1YU2 gp120 [6]) of the same binder?
Answer: The koff was 0.0043 s⁻¹.

Question: And the kon (HIV-1YU2 gp120 [6])?
Answer: The kon was 380000 M⁻¹ s⁻¹.

Question: What about the “IC50 (µM) … of HOS.CD4.CCR5 cells” value [5] of the same binder?
Answer: The value was 13 µM.

Question: Which IC50 (HIV-1YU2 gp120 [14]) does the source give for RNNI[Azp‑triazole‑ferrocene]WS (also called RNNIPWS) [UM22] here?
Answer: Its IC50 is 0.181 µM.

Question: What about the IC50 (HIV-1YU2 gp120 [2]) of the same binder?
Answer: Its IC50 is 0.123 µM.

Question: What about the koff (HIV-1YU2 gp120 [6]) of the same binder?
Answer: The koff was 0.0068 s⁻¹.

Question: What about the kon (HIV-1YU2 gp120 [6]) of the same binder?
Answer: Its kon is 510000 M⁻¹ s⁻¹.

Question: What about the “IC50 (µM) … of HOS.CD4.CCR5 cells” value [5] of the same binder?
Answer: The value was 11 µM.

Question: Which results are given for KNNI[Azp‑triazole‑ferrocene]WS (also called KNNIPWS) [UM27]?
Answer: IC50 (HIV-1YU2 gp120 [14]): 0.197 µM; IC50 (HIV-1YU2 gp120 [2]): 0.128 µM; koff (HIV-1YU2 gp120 [6]): 0.0088 s⁻¹; kon (HIV-1YU2 gp120 [6]): 590000 M⁻¹ s⁻¹; IC50 (µM), pseudotyped HIV-1BaL infection of HOS.CD4.CCR5 cells [5]: 23 µM

Question: What does the source list for ENNI[Azp‑triazole‑ferrocene]WS-NH2 (Rink amide resin; also called ENNIPWS) [UM23]?
Answer: IC50 (HIV-1YU2 gp120 [14]): 0.165 µM; IC50 (HIV-1YU2 gp120 [2]): 0.088 µM; IC50 (µM), pseudotype virus cell infection assay [3]: 6.6 µM; koff (HIV-1YU2 gp120 [6]): 0.0034 s⁻¹; kon (HIV-1YU2 gp120 [6]): 130000 M⁻¹ s⁻¹; IC50 (µM), pseudotyped HIV-1BaL infection of HOS.CD4.CCR5 cells [5]: 5.8 µM

Question: RINNI[Azp‑triazole‑ferrocene] (also called RINNIP) [UM16] was tested. Which Kd (HIV-1YU2 gp120 [6]) did it give?
Answer: Its Kd is over 10 µM.

B1: UM24 (peptide)
peptide: XNNIPWS
modifications: not fully specified; residue 1 is citrulline (Cit); proline 5 is a 1,2,3-triazole-modified proline (Azp) 4-substituted with ferrocene
notes: Rink amide resin; also called CitNNIPWS
Question: How did the IC50 (HIV-1YU2 gp120 [2]) turn out when B1 was run?
Answer: Its IC50 is 0.081 µM.

Question: And the “IC50 (µM), pseudotype virus cell infection assay” value [3]?
Answer: The value was 4.9 µM.

Question: What about the Kd (HIV-1YU2 gp120 [15]) of the same binder?
Answer: Its Kd is 0.021 µM.

Question: And the “-TΔS” value (HIV-1YU2 gp120 [4])?
Answer: Its value is 6.3 kcal/mol.

Question: What about the ΔH (HIV-1YU2 gp120 [4]) of the same binder?
Answer: Its ΔH is -16.7 kcal/mol.

Question: RINNI[Azp‑triazole‑ferrocene]WS-NH2 (Rink amide resin) [UM11] was tested. Which IC50 (HIV-1YU2 gp120 [14]) did it give?
Answer: The IC50 was 0.168 µM.

Question: What about the “IC50 (µM), pseudotype virus cell infection assay” value [3] of the same binder?
Answer: Its value is 10.7 µM.

Question: And the “IC50 (µM) … of HOS.CD4.CCR5 cells” value [5]?
Answer: The value was 4 µM.

Question: With EINNI[Azp‑triazole‑ferrocene]WS-NH2 (Rink amide resin) [UM13] as the binder, how does the IC50 (HIV-1YU2 gp120 [2]) read?
Answer: The IC50 was 0.079 µM.

Question: What about the “IC50 (µM), pseudotype virus cell infection assay” value [3] of the same binder?
Answer: Its value is 3.2 µM.

Question: And the “IC50 (µM) … of HOS.CD4.CCR5 cells” value [5]?
Answer: The value was 1.2 µM.

B2: HNG-156 (peptide)
peptide: RINNIPWSEAMM
modifications: proline 6 is a 1,2,3-triazole-modified proline (from cis-4-azidoproline, Azp) 4-substituted with ferrocene
Question: Does B2 bind [16]?
Answer: Result: no binding (tested: 10 to 600 nM)

Question: And the Kd (HIV-1 92UG037-08 gp120)?
Answer: The Kd was 0.0163 µM.

Question: What does the source list for RINNI[Azp‑triazole‑ferrocene]W (also called RINNIPW) [UM12]?
Answer: IC50 (HIV-1YU2 gp120 [14]): 0.218 µM; IC50 (HIV-1YU2 gp120 [2]): 0.124 µM; IC50 (µM), pseudotype virus cell infection assay [3]: 12.5 µM; binding result [11]: no binding; -TΔS (HIV-1YU2 gp120 [4]): 9.9 kcal/mol; ΔH (HIV-1YU2 gp120 [4]): -19.7 kcal/mol; IC50 (µM), pseudotyped HIV-1BaL infection of HOS.CD4.CCR5 cells [5]: 6.8 µM
